From patent publication US20080292620A1
Values belong to the binder of their own block, whether it stands above or below them.

Legend:
[1] = biological target: recombinant extracellular domain (ECD) of the human prolactin receptor (PRLR) (human) (UniProt P16471); assay: Biacore SPR, procedures similar to Table 6, PRLR ECD
[2] = biological target: recombinant extracellular domain (ECD) of the human prolactin receptor (PRLR) (human) (UniProt P16471); assay: Biacore 2000 SPR, antibody captured, PRLR ECD injected
[3] = biological target: T1, human prolactin receptor (PRLR), full length on cells (human) (UniProt P16471); assay: cell-based or functional assay
T1 sequence: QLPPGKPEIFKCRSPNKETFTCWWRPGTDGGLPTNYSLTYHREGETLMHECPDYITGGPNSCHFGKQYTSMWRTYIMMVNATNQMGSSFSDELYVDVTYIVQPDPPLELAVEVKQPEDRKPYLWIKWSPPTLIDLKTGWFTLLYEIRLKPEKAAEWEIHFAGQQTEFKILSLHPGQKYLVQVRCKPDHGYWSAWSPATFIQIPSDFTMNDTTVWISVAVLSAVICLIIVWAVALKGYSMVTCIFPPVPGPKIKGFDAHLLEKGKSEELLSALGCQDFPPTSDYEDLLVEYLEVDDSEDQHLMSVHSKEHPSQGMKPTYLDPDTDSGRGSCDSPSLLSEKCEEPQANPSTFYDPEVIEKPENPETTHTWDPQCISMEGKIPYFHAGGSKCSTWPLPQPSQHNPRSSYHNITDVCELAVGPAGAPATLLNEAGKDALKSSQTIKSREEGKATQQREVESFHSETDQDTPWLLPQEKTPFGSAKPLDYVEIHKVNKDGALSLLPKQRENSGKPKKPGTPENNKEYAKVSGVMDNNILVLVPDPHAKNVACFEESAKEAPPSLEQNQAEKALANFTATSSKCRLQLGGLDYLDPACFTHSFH

Kd [1]: 0.934 nM
B1: XHA.06.642 (antibody, from another filing, V domains shown)
VH: EVQLVESGGDLVKPGGSLKLSCAVSGFTFSSYGMSWVRQTPDKRLEWVATVSSGGTYTYYPDSVKGRFTISRDNAKNTLYLQMSSLKSEDSAMYYCARHRGNYYATYYYAMDYWGQGTSVTVSS
VL: DIVLTQSPASLAVSLGQGATISCRASKSVSTSGYTYMHWYQQKPGQPPKLLIYLASNLESGVPARFSGSGSGTDFTLNIHPVEEEDAATYYCQHSGELPPSFGGGTKLEIKR

Kd [2]: 0.1 nM | Kd [1]: 0.043 nM | Proliferation inhibition IC50 for BaF3/PRLR [3]: 0.1 | pERK1/2 inhibition IC50 (prolactin-stimulated T47D cells) [3]: 0.11
B2: XHA.06.983 (antibody, from another filing, V domains shown)
VH: DVQLVESGGGLVQPGGSRKLSCAASGFAFSSFGMQWVRQAPEKGLEWVAYISSGSSTIYYADTVKGRFTISRDNPKNTLFLQMTSLRSEDTAMYYCVRSGRDYWGQGTSVTVSS
VL: SIVMTQTPKFLLVSAGDRVTITCKASQGVSNDVAWFQQKPGQSPKLLIYSASTRYTGVPDRLTGSGYGTDFTFTINTVQAEDLAVYFCQQDYTSPTFGGGTKLEIKR
